According to US20220389111A1 (SHANGHAI EPIMAB BIOTHERAPEUTICS, published 2022):
Numbering of substitutions follows the chain as printed. Blank lines part the entries; values can stand above or below the binder they belong to.

How the values were obtained:
[1] = target: T1, mouse CD39 protein (recombinant) (mouse, UniProt P55772 38-478, limits assumed); test: ELISA on coated mouse CD39 protein
T1 construct: also called muCD39; recombinant purified mouse CD39 protein
T1 sequence (looked up): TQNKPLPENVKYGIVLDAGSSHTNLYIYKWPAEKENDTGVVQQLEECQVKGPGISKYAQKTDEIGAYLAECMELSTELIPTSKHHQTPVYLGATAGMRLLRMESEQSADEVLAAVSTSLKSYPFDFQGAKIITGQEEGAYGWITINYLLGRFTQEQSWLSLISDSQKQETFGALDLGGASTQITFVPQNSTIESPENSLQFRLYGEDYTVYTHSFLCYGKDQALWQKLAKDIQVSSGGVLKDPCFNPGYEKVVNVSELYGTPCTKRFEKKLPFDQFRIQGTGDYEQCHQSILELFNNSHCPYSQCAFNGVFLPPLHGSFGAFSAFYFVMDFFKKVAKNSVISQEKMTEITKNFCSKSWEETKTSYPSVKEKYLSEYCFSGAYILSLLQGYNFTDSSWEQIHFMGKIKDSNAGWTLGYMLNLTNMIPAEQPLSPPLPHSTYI
Description: To determine if anti-CD39 mAbs bind to human CD39, ELISA plates were incubated overnight at 4° C. with human CD39 protein or mouse CD39 protein diluted in PBS, pH7.4 buffer at 1 μg/ml. Plates were washed four times in washing buffer (PBS containing 0.05% Tween 20), and blocked for 1 hour at 37° C. with 200 μl per well blocking buffer (1% BSA in PBS containing 0.05% Tween 20). After blocking buffer was removed, hybridoma supernatant or diluted purified Abs were added to the wells at 100 μl per well and incubated at 37° C. for 1 hour. The wells were washed four times with washing buffer, and anti-mouse HRP (for mouse anti-human CD39 Ab characterization) or anti-rat HRP (for rat anti-mouse CD39 Ab characterization) (Sigma) were 1:5000 diluted and added to the wells at 100 μl per well. The plates were incubated for 1 hour at 37° C. and washed four times in washing buffer. 100 μl of tetramethylbenzidine (TMB) chromogenic solution were added per well. Following color development, the reaction was stopped with 1N HCl, and absorbance at 450 nm was measured. The data were proceeded by GraphPad software.

[2] = target: T2, muCD39-ECD-His (mouse, UniProt P55772 38-477); test: SPR (Biacore T200), antibody captured, antigen in solution
T2 construct: also called C-terminally hexahistidine-tagged murine CD39 extracellular domain
T2 chain: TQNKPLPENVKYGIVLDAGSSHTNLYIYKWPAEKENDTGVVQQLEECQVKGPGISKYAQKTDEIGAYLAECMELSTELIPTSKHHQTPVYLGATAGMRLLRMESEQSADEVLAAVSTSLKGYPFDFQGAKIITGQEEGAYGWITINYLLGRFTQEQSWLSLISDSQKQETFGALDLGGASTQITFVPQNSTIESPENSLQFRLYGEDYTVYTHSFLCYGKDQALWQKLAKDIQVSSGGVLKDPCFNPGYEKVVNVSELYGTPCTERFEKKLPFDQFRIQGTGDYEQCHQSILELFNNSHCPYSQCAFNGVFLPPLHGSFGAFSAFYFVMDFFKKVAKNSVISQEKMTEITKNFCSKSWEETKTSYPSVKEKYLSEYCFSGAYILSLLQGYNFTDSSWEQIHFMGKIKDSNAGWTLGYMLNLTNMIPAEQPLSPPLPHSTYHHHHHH
Description: (§1) The binding kinetics of purified antibodies was determined by surface plasmon resonance-based measurements using a Biacore T200 instrument (GE Healthcare). Briefly, goat anti-mouse IgG Fc polyclonal antibody (Genway) was directly immobilized across a biosensor chip, and antibody samples were injected over reaction matrices at a flow rate of 5 μl/min. The association and dissociation rate constants, kₒₙ (M⁻¹s⁻¹) and koff(s⁻¹), respectively, were determined by making kinetic binding measurements of anti-CD39 antibody capture at five different concentrations of a recombinant human or mouse CD39 target protein (huCD39-ECD-His or muCD39-ECD-His). The equilibrium dissociation constant KD (M) of the reaction between antibodies and related target proteins was then calculated from the kinetic rate constants using the formula: KD=koff/kₒₙ. Binding affinities for murine anti-human CD39 antibodies mAb635 and mAb638 are shown in Table 9; binding affinity for rat anti-mouse CD39 antibody mAb605 is shown in Table 10.

[3] = target: T3, mouse CD39 on CHO-K1 cells (mouse, UniProt P55772 1-510); test: FACS on CHO-K1-mouse CD39 cells
T3 construct: whole, on cells; also called CHOK1-muCD39
T3 sequence (looked up): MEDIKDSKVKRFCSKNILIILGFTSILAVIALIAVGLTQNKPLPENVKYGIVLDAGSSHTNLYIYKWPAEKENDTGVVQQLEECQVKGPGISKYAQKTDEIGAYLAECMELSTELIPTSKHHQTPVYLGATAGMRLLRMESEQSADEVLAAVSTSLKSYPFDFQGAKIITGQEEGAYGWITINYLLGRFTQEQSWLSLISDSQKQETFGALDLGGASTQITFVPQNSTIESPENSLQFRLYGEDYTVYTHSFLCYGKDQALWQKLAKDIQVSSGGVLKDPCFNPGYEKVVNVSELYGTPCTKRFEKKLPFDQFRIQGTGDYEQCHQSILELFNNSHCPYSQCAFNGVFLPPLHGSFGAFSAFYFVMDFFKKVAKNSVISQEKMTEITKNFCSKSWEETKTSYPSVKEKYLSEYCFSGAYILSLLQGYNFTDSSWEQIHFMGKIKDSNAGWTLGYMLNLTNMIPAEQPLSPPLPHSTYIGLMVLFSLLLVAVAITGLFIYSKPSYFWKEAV
Description: (§2) The ability of the purified antibodies to bind to cell membrane human CD39, cynomolgus monkey CD39, or mouse CD39 was determined by FACS analysis. CHO-K1 cells stably transfected to overexpress human CD39, cynomolgus monkey CD39, or mouse CD39 (CHO-K1-huCD39 cells, CHO-K1-cyCD39 cells, and CHOK1-muCD39 cells) were generated for use in this assay. Briefly, SK-MEL-28 melanoma cells (ATCC) or CD39 overexpressing stable CHO cell lines were resuspended in PBS containing 2% FBS (FACS buffer) and seeded at 1-5×10⁵ cells/well into U-bottomed plates. Anti-CD39 mAbs or isotype control antibodies diluted in FACS buffer were added to the wells and incubated for 1 hour at 4° C. After washing with FACS buffer, 1:1000 diluted Fluorescence-labeled secondary antibody (Life Technologies/ThermoFisher Scientific) were added and incubated for 30 min. at 4° C. Unbound secondary mAb was removed by washing with FACS buffer three times, and the samples were then read on a FACS instrument. The data were processed by GraphPad software.

[4] = target: T4, huCD39-ECD-His (human, UniProt P49961 38-478); test: BLI (Octet RED96), antibody captured on AMC biosensor, antigen in solution
T4 construct: also called C-terminally hexahistidine-tagged human CD39 extracellular domain
T4 sequence: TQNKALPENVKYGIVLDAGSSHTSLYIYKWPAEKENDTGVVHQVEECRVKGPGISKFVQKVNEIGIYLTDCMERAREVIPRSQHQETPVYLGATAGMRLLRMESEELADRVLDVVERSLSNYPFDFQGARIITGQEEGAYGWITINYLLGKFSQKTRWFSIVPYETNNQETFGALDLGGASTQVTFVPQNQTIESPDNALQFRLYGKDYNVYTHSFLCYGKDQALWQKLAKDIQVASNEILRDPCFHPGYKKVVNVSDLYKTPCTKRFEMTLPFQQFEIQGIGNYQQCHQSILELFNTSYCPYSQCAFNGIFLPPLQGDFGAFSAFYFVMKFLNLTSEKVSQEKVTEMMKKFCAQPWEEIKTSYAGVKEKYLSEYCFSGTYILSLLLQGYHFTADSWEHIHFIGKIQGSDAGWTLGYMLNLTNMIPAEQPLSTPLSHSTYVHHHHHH
Description: Anti-CD39 antibodies were characterized for affinities and binding kinetics using the Octet®RED96 biolayer interferometry system (Pall FortéBio LLC). Purified anti-CD39 antibodies were captured by Anti-Mouse IgG Fc Capture (AMC) biosensors or Anti-Human IgG Fc Capture (AHC) biosensors at a concentration of 100 nM for 30 seconds. Biosensors were then dipped into running buffer (1X pH7.2 PBS, 0.05% Tween 20, 0.1% BSA) for 60 seconds to check baseline. Binding was measured by dipping sensors into purified recombinant human CD39 protein, 3-fold serial diluted from 200 nM, for 120 seconds. Dissociation was followed by dipping sensors into running buffer for 600 seconds. The association and dissociation curves were fitted to a 1:1 Langmuir binding model using Fortebio Data Analysis software (Pall FortéBio LLC).

[5] = target: T5, human CD39 on the cell membrane (CHO-K1-human CD39 stable cell line); SK-MEL-28 melanoma cells; human CD4+ T … (human, UniProt P49961 1-510); test: FACS on CHO-K1-human CD39 cells
T5 construct: Overexpressed on CHO-K1 cells or endogenous on SK-MEL-28 / T cells; the assay field says which cells; also called huCD39; CHO-K1-huCD39
T5 sequence: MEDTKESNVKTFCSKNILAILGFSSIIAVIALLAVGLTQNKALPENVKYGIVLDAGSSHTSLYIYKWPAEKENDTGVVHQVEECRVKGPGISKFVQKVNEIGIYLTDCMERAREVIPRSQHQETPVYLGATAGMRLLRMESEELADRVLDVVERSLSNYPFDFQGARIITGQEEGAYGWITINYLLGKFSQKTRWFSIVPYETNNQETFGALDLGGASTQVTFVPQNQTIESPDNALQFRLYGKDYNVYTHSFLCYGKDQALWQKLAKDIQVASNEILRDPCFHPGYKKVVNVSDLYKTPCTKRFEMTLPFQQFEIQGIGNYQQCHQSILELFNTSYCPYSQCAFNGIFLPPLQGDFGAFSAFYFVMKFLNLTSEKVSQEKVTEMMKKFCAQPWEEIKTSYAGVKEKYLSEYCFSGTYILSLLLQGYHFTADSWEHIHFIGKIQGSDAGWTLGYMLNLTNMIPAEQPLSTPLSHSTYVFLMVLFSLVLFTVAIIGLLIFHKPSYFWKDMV
Description: as §2

[6] = target: T5, human CD39 on the cell membrane …; test: cell-based or functional assay
[7] = target: T6, cynomolgus monkey CD39 on CHO-K1 cells (cynomolgus monkey, UniProt A0A7N9DGH8 1-510); test: FACS on CHO-K1-cyno CD39 cells
T6 construct: whole, on cells; also called CHO-K1-cyCD39; CHO-K1-cyno CD39
T6 sequence: T5 sequence with V47I, F94Y, V221I, I230T, I329V, K368N, A391S, F489V, T490I
Description: as §2

[8] = target: T5, human CD39 on the cell membrane …; test: cell-based or functional assay; remark: listed apart in the source
[9] = target: T4, huCD39-ECD-His; test: SPR (Biacore T200), antibody captured by anti-mouse IgG Fc, antigen in solution
Description: as §1

EC50 [1]: 0.09 nM
Kd [2]: 0.389 nM
koff [2]: 0.000109 s⁻¹
EC50 [3]: 2.07 nM
B1: mAb605 (antibody, V domains shown)
VH: EVQLVESGGGLVQPGRSLKLSCAASGFTFSDNYLAWVRQAPEKGLEWVASISFEGISTYYGDSVKGRFTISKDNARRTLYLQMNSLRSEDTATYYCARRSYGSRAMDAWGQGTSVTVSS
VL: DVVMTQTPVSLPVGLGGQASISCRSSQSLVHSNGNTYLSWYLKRPGQSPQLLIYRVSSRFSGVPDRFSGSGSGTDFTLKISKVVPGDLGHYYCLQTTQYPYTFGAGTKLELK
notes: rat anti-mouse CD39 hybridoma mAb, IgG2a, κ

Kd [4]: 2.27 nM
koff [4]: 0.000426 s⁻¹
kon [4]: 188000 M⁻¹ s⁻¹
EC50 [5]: 3.34 nM
IC50 (read off the curve), cell-surface hCD39 ATPase activity [6]: ~0.4 nM
EC50 [7]: 19.2 nM
IC50 (read off the curve), cell-surface huCD39 ATPase activity [8]: ~0.4 nM
Kd [9]: 0.203 nM
koff [9]: 0.000117 s⁻¹
kon [9]: 574000 M⁻¹ s⁻¹
B2: mAb638 (antibody, V domains shown)
VH: QVQLQQPGTELVKPGASVKLSCKASGYTFTSFWMHWVKQRPGQGLEWIGNINPRNGATKYNEKFRSKVTLTADKTSSTAYMHLSSLTSEDSAVYYCAREDYDEIYYAMDSWGQGTSVTVSS
VL: QNVLTQSPAIMSASPGEKVTMTCSASSSVIYMYWFQQKPGSSPRVLIYDTSNLASGVPARFSGSGSGTSYSLTISRMEAEDAATYYCQQWSTYPLTFGAGTKLELK
notes: mouse anti-human CD39 hybridoma mAb, IgG1, κ
